From patent US20140128280A1 (published 2014)

Experiments:
α1-antitrypsin = target: T1, α1-antitrypsin; assay: SPR
T1 construct: also called α-antitrypsin; α-antitrypsine

Gal80 [1] = target: T2, Gal80 (UniProt P04387 1-435, limits assumed); assay: gel shift assay
T2 construct: Cy3/Cy5-labeled on arrays; immobilized on SPR chip or ELISA well, or in solution over immobilized synbody
T2 sequence (looked up): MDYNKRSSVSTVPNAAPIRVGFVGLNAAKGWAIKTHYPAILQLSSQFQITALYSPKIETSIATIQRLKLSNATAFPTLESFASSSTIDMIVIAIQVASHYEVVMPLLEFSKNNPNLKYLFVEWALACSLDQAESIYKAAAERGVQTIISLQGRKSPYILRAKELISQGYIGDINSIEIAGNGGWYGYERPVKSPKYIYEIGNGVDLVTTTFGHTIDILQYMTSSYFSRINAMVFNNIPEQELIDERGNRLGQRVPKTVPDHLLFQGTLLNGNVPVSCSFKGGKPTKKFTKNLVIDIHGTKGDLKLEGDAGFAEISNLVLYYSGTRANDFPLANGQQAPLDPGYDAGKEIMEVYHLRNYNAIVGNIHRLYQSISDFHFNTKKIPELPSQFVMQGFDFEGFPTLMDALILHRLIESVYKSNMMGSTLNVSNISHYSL

Gal80 [2] = target: T2, Gal80; assay: SPR, synbody in solution (1 µM to 7.81 nM) over surface-bound Gal80
transferrin = target: T3, transferrin (human, UniProt P02787 20-698); assay: SPR (Biacore A-100), purified peptide at several concentrations
T3 construct: Amine-coupled to SPR chips, tips or beads; Alexa 555-labeled on arrays; also called TRF; pooled human transferrin (Sigma)
T3 sequence (P02787 20-698 limits assumed): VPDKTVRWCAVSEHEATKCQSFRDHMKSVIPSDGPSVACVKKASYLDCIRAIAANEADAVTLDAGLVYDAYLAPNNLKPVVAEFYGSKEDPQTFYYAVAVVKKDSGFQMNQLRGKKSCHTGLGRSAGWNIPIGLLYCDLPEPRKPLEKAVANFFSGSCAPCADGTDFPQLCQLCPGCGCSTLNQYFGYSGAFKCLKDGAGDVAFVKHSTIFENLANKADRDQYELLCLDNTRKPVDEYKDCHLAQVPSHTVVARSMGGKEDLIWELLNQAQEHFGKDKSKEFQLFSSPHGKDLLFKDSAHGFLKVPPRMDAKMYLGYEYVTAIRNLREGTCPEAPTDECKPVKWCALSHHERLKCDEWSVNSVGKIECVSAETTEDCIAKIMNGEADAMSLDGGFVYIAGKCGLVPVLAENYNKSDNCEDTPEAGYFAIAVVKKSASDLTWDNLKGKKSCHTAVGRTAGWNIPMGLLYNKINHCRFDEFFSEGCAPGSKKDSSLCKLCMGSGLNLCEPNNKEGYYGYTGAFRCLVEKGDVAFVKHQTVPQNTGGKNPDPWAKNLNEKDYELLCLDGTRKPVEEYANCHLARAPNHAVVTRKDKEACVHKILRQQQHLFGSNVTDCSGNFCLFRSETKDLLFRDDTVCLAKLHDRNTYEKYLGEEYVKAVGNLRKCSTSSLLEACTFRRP
Description: A Biacore A-100 Surface Plasmon Resonance (SPR) system was used to measure the binding response of each peptide to several different target proteins immobilized on a gold surface. The A-100 has four different flow cells and within each flow cell are five addressable spots. Therefore four different proteins and a negative control reference can be used per flow cell. […] Sensorgrams are collected from each immobilized protein, so a binding profile for each analyte versus each of the protein targets is generated for each injection. Target proteins were immobilized using a biotin capture approach in which a CM5 chip was activated using standard amine coupling chemistry and Neutravidin was covalently coupled to the chip. Each biotinylated protein was injected over a single spot and the amount of protein captured was measured. In this manner four proteins were immobilized per flow cell. In this example, the same four proteins were captured in all four flow cells for this experiment.

T1 sequence (P01009 25-418): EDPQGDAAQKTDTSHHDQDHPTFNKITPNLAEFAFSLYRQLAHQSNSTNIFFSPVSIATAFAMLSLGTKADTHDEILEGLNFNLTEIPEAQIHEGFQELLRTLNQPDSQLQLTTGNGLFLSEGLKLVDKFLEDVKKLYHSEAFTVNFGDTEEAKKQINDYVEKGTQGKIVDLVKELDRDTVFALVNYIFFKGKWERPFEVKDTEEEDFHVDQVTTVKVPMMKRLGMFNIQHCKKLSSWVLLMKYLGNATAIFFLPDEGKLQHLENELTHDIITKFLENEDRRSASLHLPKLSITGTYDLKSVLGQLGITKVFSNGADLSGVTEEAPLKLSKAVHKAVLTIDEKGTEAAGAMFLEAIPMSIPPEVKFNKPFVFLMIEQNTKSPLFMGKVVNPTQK

B1: BP1/BP2 DNA-linked synbody (linker-optimized: BP1 on the template strand, BP2 at position 13 from the 3' end of the variable strand) (designed binder)
peptide 1: GTEKGTSGWLKTGSC
peptide 2: EGEWTEGKLSLRGSC
modifications: C-terminal Cys joined through SMCC to the amine-modified cytosine at position 13 from the 3' terminus of the DNA variable strand (SEQ ID NO: 15); C-terminal Cys joined through SMCC to the 5' terminal amine-modified cytosine of the DNA template strand (SEQ ID NO: 14)
notes: Two peptides held by a double-stranded DNA linker; also called Gal80 synbody; gal80 synbody
- Kd relative to the Kd for gal80 (α1-antitrypsin): 1000 fold
- Kd (Gal80 [1]): ~100 nM
- Kd (Gal80 [2]): 91 nM

Binder: NQYVPIFSQPEDPVQQEGSC (Screened unpurified) [TRF102]
- binding result (transferrin): no binding
